Data reported in US20200024330A1.

Key:
Assay in all cases: cell-based or functional assay
[1] = molecular target: HIV-1 Env of isolate 98CN006 (subtype CRF08 BC), on pseudovirus (HIV-1)
[2] = molecular target: HIV-1 Env of isolate 92WR020 (pseudovirus) (HIV-1)
[3] = molecular target: HIV-1 Env of isolate 92UG031 (pseudovirus) (HIV-1)
[4] = molecular target: HIV-1 Env of isolate 92RW009 (clade A), on pseudovirus (HIV-1)
[5] = molecular target: HIV-1 Env of isolate 94UG103 (pseudovirus) (HIV-1)
[6] = molecular target: HIV-1 Env of isolate 92TH021 (pseudovirus) (HIV-1)
[7] = molecular target: HIV-1 Env of isolate 93UG077 (pseudovirus) (HIV-1)
[8] = molecular target: HIV-1 Env of isolate MG RM-A-012 (pseudovirus) (HIV-1)
[9] = molecular target: HIV-1 Env of isolate CAAN.A2 (HIV-1)
[10] = molecular target: HIV-1 Env of isolate MGRM-Chronic-B-002 (HIV-1)
[11] = molecular target: HIV-1 Env of isolate MGRM-AE-003 (pseudovirus) (HIV-1)
[12] = molecular target: HIV-1 Env of isolate 94 KE 105 (pseudovirus) (HIV-1)
[13] = molecular target: HIV-1 92BR020 envelope glycoprotein (Env) on pseudovirus (HIV-1)
[14] = molecular target: HIV-1 Env of isolate MGRM-D-002 (subtype D), on pseudovirus (HIV-1)
[15] = molecular target: HIV-1 Env of isolate 92WR026 (pseudovirus) (HIV-1)
[16] = molecular target: HIV-1 Env of isolate 93WR029 (pseudovirus) (HIV-1)
[17] = molecular target: HIV-1 Env of isolate MGRM-D-001 (subtype D), on pseudovirus (HIV-1)
[18] = molecular target: HIV-1 Env of isolate MGRM-AE-006 (pseudovirus) (HIV-1)
[19] = molecular target: HIV-1 Env of isolate 92WR021 (pseudovirus) (HIV-1)
[20] = molecular target: HIV-1 Env of isolate MG RM-A-007 (pseudovirus) (HIV-1)
[21] = molecular target: HIV-1 Env of isolate 92UG001 (subtype D), on pseudovirus (HIV-1)
[22] = molecular target: HIV-1 Env of isolate 93TH305 (HIV-1)
[23] = molecular target: HIV-1 Env of isolate MGRM-Chronic-B-003 (HIV-1)
[24] = molecular target: HIV-1 Env of isolate MGRM-AE-001 (pseudovirus) (HIV-1)
[25] = molecular target: HIV-1 Env of isolate MGRM-AE-004 (pseudovirus) (HIV-1)
[26] = molecular target: HIV-1 Env of isolate MGRM-D-005 (subtype D), on pseudovirus (HIV-1)
[27] = molecular target: HIV-1 Env of isolate MG RM-A-005 (pseudovirus) (HIV-1)
[28] = molecular target: HIV-1 Env of isolate MG RM-A-008 (pseudovirus) (HIV-1)
[29] = molecular target: HIV-1 Env of isolate MG RM-A-006 (pseudovirus) (HIV-1)
[30] = molecular target: HIV-1 92RW020 envelope glycoprotein (Env) on pseudovirus (HIV-1)
[31] = molecular target: HIV-1 Env of isolate MGRM-AE-002 (pseudovirus) (HIV-1)
[32] = molecular target: HIV-1 Env of isolate APV_6 (HIV-1)
[33] = molecular target: HIV-1 Env of isolate JRFL (HIV-1)
[34] = molecular target: HIV-1 Env of isolate APV_17 (HIV-1)
[35] = molecular target: HIV-1 Env of isolate MGRM-Chronic-B-001 (HIV-1)
[36] = molecular target: HIV-1 Env of isolate 92WR024 (pseudovirus) (HIV-1)
[37] = molecular target: HIV-1 Env of isolate 92UG024 (subtype D), on pseudovirus (HIV-1)
[38] = molecular target: HIV-1 Env of isolate MG RM-A-010 (pseudovirus) (HIV-1)
[39] = molecular target: HIV-1 Env of isolate MGRM-Chronic-B-008 (HIV-1)
[40] = molecular target: HIV-1 Env of isolate 92UG005 (subtype D), on pseudovirus (HIV-1)
[41] = molecular target: HIV-1 Env of isolate APV_13 (HIV-1)
[42] = molecular target: HIV-1 Env of isolate 92UG046 (subtype D), on pseudovirus (HIV-1)
[43] = molecular target: HIV-1 Env of isolate CMU02 (pseudovirus) (HIV-1)
[44] = molecular target: HIV-1 Env of isolate MG RM-A-014 (pseudovirus) (HIV-1)
[45] = molecular target: HIV-1 Env of isolate MGRM-D-004 (subtype D), on pseudovirus (HIV-1)
[46] = molecular target: HIV-1 Env of isolate 98CN009 (subtype CRF07_BC), on pseudovirus (HIV-1)
[47] = molecular target: HIV-1 Env of isolate MGRM-D-008 (subtype D), on pseudovirus (HIV-1)
[48] = molecular target: HIV-1 Env of isolate 92RW008 (clade A), on pseudovirus (HIV-1)
[49] = molecular target: HIV-1 Env of isolate MGRM-D-003 (subtype D), on pseudovirus (HIV-1)
[50] = molecular target: HIV-1 Env of isolate 92UG114 (subtype D), on pseudovirus (HIV-1)
[51] = molecular target: HIV-1 Env of isolate MGRM-Chronic-B-004 (HIV-1)
[52] = molecular target: HIV-1 Env of isolate MGRM-AE-005 (pseudovirus) (HIV-1)
[53] = molecular target: HIV-1 Env of isolate MG RM-A-013 (pseudovirus) (HIV-1)
[54] = molecular target: HIV-1 Env of isolate 92UG037 (pseudovirus) (HIV-1)
[55] = molecular target: HIV-1 Env of isolate 92BR020 (HIV-1)
[56] = molecular target: HIV-1 Env of isolate MG RM-A-011 (pseudovirus) (HIV-1)
[57] = molecular target: HIV-1 Env of isolate 6535.3 (HIV-1)
[58] = molecular target: HIV-1 Env of isolate MG RM-A-009 (pseudovirus) (HIV-1)
[59] = molecular target: HIV-1 Env of isolate VLGCA1 (pseudovirus) (HIV-1)

4970_K22 (PGT-144) (antibody), sequence (VH): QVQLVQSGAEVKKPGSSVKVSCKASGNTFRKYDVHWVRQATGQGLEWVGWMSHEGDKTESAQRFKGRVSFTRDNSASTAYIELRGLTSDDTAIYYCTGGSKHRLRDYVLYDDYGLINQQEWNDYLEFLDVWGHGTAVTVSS
4970_K22 (PGT-144) (antibody), sequence (VL): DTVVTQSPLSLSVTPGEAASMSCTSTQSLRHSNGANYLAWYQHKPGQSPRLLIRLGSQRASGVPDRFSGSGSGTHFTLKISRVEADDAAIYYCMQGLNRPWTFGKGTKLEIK

4970_K22 (PGT-144) (antibody)
IC50, pseudovirus neutralization [1]: > 50 µg/mL
IC50 (µg/mL), pseudovirus neutralization [2]: > 50 µg/mL
IC50 (µg/mL), pseudovirus neutralization [3]: 2.17 µg/mL
IC50, single-round pseudovirus neutralization [4]: 0.893 µg/mL
IC50 (µg/mL), pseudovirus neutralization [5]: > 50 µg/mL
IC50 (µg/mL), pseudovirus neutralization [6]: 0.052 µg/mL
IC50 (µg/mL), pseudovirus neutralization [7]: > 50 µg/mL
IC50 (µg/mL), pseudovirus neutralization [8]: > 50 µg/mL
IC50 [9]: > 50 µg/mL
IC50 [10]: > 50 µg/mL
IC50 (µg/mL), pseudovirus neutralization [11]: > 50 µg/mL
IC50 (µg/mL), pseudovirus neutralization [12]: 0.29 µg/mL
IC50 (ug/ml), neutralizing activity [13]: > 10 µg/mL
IC50, pseudovirus neutralization [14]: > 50 µg/mL
IC50 (µg/mL), pseudovirus neutralization [15]: 32.7 µg/mL
IC50 (µg/mL), pseudovirus neutralization [16]: 4.39 µg/mL
IC50, pseudovirus neutralization [17]: > 50 µg/mL
IC50 (µg/mL), pseudovirus neutralization [18]: > 50 µg/mL
IC50 (µg/mL), pseudovirus neutralization [19]: > 50 µg/mL
IC50 (µg/mL), pseudovirus neutralization [20]: > 50 µg/mL
IC50, pseudovirus neutralization [21]: > 50 µg/mL
IC50 [22]: > 50 µg/mL
IC50 [23]: 7.41 µg/mL
IC50 (µg/mL), pseudovirus neutralization [24]: > 50 µg/mL
IC50 (µg/mL), pseudovirus neutralization [25]: 0.104 µg/mL
IC50, pseudovirus neutralization [26]: 14.8 µg/mL
IC50 (µg/mL), pseudovirus neutralization [27]: 18.6 µg/mL
IC50 (µg/mL), pseudovirus neutralization [28]: > 50 µg/mL
IC50 (µg/mL), pseudovirus neutralization [29]: > 50 µg/mL
IC50 (ug/ml), neutralizing activity [30]: > 10 µg/mL
IC50 (µg/mL), pseudovirus neutralization [31]: > 50 µg/mL
IC50 [32]: > 50 µg/mL
IC50 [33]: > 50 µg/mL
IC50 [34]: 10.3 µg/mL
IC50 [35]: > 50 µg/mL
IC50 (µg/mL), pseudovirus neutralization [36]: 16.3 µg/mL
IC50, pseudovirus neutralization [37]: > 50 µg/mL
IC50 (µg/mL), pseudovirus neutralization [38]: 2.79 µg/mL
IC50 [39]: > 50 µg/mL
IC50, pseudovirus neutralization [40]: > 50 µg/mL
IC50 [41]: > 50 µg/mL
IC50, pseudovirus neutralization [42]: > 50 µg/mL
IC50 (µg/mL), pseudovirus neutralization [43]: > 50 µg/mL
IC50 (µg/mL), pseudovirus neutralization [44]: > 50 µg/mL
IC50, pseudovirus neutralization [45]: > 50 µg/mL
IC50, pseudovirus neutralization [46]: > 50 µg/mL
IC50, pseudovirus neutralization [47]: 9.85 µg/mL
IC50, single-round pseudovirus neutralization [48]: > 50 µg/mL
IC50, pseudovirus neutralization [49]: > 50 µg/mL
IC50, pseudovirus neutralization [50]: > 50 µg/mL
IC50 [51]: 9.41 µg/mL
IC50 (µg/mL), pseudovirus neutralization [52]: > 50 µg/mL
IC50 (µg/mL), pseudovirus neutralization [53]: > 50 µg/mL
IC50 (µg/mL), pseudovirus neutralization [54]: 8.24 µg/mL
IC50 [55]: 44 µg/mL
IC50 (µg/mL), pseudovirus neutralization [56]: > 50 µg/mL
IC50 [57]: > 50 µg/mL
IC50 (µg/mL), pseudovirus neutralization [58]: 2.83 µg/mL
IC50 (µg/mL), pseudovirus neutralization [59]: > 50 µg/mL
